Source: the supplement of paper PMC10065799, “High-throughput profiling of sequence recognition by tyrosine kinases and SH2 domains using bacterial peptide display” (eLife, 2023)

Legend:
AncSZ = experiment: phosphorylation enrichment, bacterial display (enrichment ratio); higher = better substrate or ligand; peptides without Tyr show the background
EPHB1 = EPHB1 (UniProt P54762); experiment: as above
EPHB2 = EPHB2 (UniProt P29323); experiment: as above
FGFR1 = FGFR1 (UniProt P11362); experiment: as above
FGFR3 = FGFR3 (UniProt P22607); experiment: as above
Fer (mouse) = experiment: as above
Fes = Fes (UniProt P07332); experiment: as above
Fyn = Fyn (UniProt P06241); experiment: as above
Hck = Hck (UniProt P08631); experiment: as above
Jak2 = Jak2 (UniProt O60674); experiment: as above
MERTK = MERTK (UniProt Q12866); experiment: as above
c-Abl (mouse) = experiment: as above
c-Src = experiment: as above
Grb2 SH2 = Grb2 SH2 (UniProt P62993); experiment: SH2 binding enrichment of the phosphorylated peptide, bacterial display (enrichment ratio); higher = better substrate or ligand; peptides without Tyr show the background
SHP2-C SH2 = experiment: as above
c-Src SH2 = experiment: as above
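Wherever SH2 binding enrichment of the phosphorylated peptide, bacterial display is given: peptide library displayed on the E. coli surface as eCPX fusions, selected cells deep-sequenced, score is each peptide's frequency after selection divided by its frequency in the input.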
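Wherever phosphorylation enrichment, bacterial display is given: 11-residue human phosphosite peptides and single-mutation variants displayed on the E. coli surface, counted by deep sequencing, each peptide's frequency after selection divided by its frequency in the unselected input library; frequency after pTyr selection over input frequency; kinase dosed for 20-30% of maximal phosphorylation in three min.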

Sequence of MERTK (Q12866 whole entry, looked up): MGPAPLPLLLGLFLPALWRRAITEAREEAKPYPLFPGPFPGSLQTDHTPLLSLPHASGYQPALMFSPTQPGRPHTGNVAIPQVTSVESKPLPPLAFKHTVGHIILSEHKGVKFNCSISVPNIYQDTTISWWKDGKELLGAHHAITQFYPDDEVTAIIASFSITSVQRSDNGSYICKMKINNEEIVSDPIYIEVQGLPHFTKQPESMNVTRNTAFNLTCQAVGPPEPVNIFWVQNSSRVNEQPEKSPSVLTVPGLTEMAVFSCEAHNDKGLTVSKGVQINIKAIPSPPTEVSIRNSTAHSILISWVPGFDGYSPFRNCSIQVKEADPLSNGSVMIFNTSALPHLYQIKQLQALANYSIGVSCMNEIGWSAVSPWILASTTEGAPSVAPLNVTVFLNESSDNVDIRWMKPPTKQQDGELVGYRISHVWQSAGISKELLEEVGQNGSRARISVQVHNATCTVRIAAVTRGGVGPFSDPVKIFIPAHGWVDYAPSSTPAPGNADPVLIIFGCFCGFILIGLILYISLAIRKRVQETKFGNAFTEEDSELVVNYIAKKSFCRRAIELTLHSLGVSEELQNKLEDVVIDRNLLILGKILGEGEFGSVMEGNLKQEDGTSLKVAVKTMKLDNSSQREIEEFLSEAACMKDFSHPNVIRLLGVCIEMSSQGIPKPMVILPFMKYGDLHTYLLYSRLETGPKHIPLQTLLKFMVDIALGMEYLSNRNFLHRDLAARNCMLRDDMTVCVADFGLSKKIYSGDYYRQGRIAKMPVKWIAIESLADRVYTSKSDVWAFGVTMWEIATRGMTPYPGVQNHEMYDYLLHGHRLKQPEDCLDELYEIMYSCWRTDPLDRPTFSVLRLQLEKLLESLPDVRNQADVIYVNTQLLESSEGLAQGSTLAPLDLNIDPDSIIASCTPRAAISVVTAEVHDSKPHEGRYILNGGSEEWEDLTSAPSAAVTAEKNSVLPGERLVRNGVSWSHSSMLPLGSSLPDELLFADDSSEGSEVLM
Sequence of EPHB2 (P29323 whole entry, looked up): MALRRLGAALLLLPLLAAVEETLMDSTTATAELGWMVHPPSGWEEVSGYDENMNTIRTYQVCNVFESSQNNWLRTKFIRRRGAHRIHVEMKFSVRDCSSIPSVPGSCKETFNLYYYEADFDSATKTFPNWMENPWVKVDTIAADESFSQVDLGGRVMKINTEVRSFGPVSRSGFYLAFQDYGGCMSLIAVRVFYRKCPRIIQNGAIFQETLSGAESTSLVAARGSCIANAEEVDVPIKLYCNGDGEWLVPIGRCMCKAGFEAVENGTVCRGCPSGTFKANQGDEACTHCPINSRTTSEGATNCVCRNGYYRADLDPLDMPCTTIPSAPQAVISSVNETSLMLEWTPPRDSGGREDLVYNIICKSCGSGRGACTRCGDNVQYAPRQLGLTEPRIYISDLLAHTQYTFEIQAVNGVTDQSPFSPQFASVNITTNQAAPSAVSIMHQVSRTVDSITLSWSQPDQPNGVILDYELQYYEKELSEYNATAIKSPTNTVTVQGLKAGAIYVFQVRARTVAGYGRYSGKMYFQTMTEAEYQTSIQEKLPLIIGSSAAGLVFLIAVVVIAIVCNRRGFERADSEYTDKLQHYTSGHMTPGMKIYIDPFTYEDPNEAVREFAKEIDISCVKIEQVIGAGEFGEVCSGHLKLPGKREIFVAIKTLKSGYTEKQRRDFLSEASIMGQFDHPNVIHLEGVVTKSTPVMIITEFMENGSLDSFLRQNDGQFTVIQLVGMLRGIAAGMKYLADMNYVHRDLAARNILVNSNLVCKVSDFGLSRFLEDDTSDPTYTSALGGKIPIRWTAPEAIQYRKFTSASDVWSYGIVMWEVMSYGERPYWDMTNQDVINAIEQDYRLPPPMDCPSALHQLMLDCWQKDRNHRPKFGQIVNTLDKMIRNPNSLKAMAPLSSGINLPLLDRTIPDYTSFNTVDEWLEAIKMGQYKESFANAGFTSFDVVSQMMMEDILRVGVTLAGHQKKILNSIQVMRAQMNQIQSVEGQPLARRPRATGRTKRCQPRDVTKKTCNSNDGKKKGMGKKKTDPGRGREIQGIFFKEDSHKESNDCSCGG
Sequence of EPHB1 (P54762 whole entry, looked up): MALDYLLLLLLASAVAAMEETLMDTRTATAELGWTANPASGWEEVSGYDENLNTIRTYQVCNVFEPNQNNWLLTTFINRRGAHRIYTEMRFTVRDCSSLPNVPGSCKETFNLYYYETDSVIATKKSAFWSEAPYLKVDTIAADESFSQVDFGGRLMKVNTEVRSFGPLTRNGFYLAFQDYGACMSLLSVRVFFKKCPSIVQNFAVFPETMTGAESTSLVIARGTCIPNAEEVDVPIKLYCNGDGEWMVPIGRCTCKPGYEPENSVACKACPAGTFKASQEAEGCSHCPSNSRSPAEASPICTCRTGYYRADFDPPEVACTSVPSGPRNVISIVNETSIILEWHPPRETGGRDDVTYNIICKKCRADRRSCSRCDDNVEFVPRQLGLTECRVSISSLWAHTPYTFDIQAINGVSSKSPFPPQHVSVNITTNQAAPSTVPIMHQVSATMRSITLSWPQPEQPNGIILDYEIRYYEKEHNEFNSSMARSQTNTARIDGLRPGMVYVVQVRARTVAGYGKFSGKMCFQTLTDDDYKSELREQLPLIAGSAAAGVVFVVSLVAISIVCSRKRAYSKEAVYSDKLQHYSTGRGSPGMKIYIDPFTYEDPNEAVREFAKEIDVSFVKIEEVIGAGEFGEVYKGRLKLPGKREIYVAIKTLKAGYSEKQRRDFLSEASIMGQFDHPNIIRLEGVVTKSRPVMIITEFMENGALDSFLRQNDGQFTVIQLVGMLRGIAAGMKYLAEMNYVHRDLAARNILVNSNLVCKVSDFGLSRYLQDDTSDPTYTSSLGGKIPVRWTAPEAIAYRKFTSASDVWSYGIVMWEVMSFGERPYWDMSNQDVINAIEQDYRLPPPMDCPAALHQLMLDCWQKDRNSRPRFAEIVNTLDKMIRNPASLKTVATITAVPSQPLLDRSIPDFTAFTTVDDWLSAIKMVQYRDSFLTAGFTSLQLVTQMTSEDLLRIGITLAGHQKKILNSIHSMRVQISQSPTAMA
Sequence of Fes (P07332 whole entry, looked up): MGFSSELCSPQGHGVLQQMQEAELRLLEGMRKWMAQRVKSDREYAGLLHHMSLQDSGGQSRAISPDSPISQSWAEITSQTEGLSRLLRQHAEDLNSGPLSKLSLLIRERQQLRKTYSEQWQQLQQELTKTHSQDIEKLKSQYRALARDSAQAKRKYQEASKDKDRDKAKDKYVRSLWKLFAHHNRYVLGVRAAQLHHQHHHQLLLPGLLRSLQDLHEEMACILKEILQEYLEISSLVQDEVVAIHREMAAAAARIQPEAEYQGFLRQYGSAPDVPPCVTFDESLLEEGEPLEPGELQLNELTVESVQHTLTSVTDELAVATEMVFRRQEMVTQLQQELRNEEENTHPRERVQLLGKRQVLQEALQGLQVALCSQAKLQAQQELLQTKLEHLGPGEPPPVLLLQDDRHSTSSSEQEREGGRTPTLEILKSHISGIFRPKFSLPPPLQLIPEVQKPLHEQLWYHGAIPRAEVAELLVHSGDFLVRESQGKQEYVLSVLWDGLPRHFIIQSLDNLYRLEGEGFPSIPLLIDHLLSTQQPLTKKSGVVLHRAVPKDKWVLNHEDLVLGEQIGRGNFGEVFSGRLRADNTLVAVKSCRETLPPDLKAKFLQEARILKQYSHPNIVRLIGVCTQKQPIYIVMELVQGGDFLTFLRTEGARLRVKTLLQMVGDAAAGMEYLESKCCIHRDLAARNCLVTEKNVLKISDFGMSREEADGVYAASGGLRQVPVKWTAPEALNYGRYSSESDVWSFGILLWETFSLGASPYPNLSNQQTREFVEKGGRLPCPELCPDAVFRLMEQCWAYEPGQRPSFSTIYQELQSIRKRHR
Sequence of FGFR1 (P11362 whole entry, looked up): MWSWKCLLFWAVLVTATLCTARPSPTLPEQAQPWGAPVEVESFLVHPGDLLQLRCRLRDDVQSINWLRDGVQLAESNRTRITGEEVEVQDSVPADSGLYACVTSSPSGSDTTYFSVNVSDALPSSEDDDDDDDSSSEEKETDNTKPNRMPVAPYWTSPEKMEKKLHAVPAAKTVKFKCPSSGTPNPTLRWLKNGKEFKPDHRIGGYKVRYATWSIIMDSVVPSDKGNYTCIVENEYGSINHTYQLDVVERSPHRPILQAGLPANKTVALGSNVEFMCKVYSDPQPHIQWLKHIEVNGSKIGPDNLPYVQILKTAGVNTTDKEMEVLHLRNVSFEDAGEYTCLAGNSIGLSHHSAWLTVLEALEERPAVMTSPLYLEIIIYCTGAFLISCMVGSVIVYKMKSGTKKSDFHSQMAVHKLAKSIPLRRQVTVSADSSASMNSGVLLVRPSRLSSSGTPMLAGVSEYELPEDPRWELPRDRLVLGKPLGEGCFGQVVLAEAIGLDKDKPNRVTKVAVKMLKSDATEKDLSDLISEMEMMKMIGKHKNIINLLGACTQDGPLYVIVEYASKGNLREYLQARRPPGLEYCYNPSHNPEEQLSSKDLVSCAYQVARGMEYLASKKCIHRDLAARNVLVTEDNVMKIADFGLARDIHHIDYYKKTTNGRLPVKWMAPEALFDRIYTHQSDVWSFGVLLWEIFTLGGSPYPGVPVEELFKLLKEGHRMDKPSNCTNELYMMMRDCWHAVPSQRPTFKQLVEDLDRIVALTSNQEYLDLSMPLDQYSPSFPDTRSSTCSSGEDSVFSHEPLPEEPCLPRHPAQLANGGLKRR

SH2 binding enrichment (Grb2 SH2)	SH2 binding enrichment (SHP2-C SH2)	SH2 binding enrichment (c-Src SH2)	Sequence	phosphorylation enrichment (AncSZ)	phosphorylation enrichment (EPHB1)	phosphorylation enrichment (EPHB2)	phosphorylation enrichment (FGFR1)	phosphorylation enrichment (FGFR3)	phosphorylation enrichment (Fer (mouse))	phosphorylation enrichment (Fes)	phosphorylation enrichment (Fyn)	phosphorylation enrichment (Hck)	phosphorylation enrichment (Jak2)	phosphorylation enrichment (MERTK)	phosphorylation enrichment (c-Abl (mouse))	phosphorylation enrichment (c-Src)
1	0.701	0.439	AVLQLYIFVAT [CFTR_Y1014_P1013L]	1.3	0.766	0.599	0.462	1.09	0.573	1.37	0.516	0.562	1.24	0.498	0.837	0.567
0.696	0.708	0.44	PAVGIYNGNIN [CDCP1_Y707_D709G]	0.67	0.605	0.652	0.396	0.884	0.588	1.15	1.49	1.55	1.15	0.574	1.08	1.64
1.34	1.22	1.44	YHRQLYHKCTH [F12_Y58]	0.886	0.41	0.537	0.453	0.606	0.467	0.795	0.378	0.53	0.653	0.571	0.641	0.481
0.98	1.09	0.593	TAALWYIFLHT [ENG_Y612_S615L_YF]	1.32	0.832	0.939	0.845	1.2	0.577	1.86	0.555	0.689	1.48	0.555	1.24	0.508
0.754	0.715	0.763	QLDQRYLLVPE [DDX49_Y223]	1.12	0.613	0.807	0.843	0.799	0.374	0.978	0.574	0.664	0.748	0.572	0.665	0.701
1.68	1.55	1.01	RLLVVYTWTQR [HBB_Y36_P37T]	1.81	0.656	1.12	0.661	0.941	0.842	2.12	0.739	0.915	1.08	0.694	0.862	0.509
0.787	0.604	0.473	IVAREYFSKAD [CAMK2B_Y107_E110K_YF]	0.627	0.421	0.437	0.434	0.402	0.368	0.693	0.469	0.427	0.542	0.358	0.448	0.342
1.07	0.85	0.686	ITVCDYTNPCP [MYD88_Y276_T281P]	1.49	0.561	0.482	0.443	0.551	0.396	0.829	0.428	0.354	0.689	0.333	0.551	0.943
0.913	0.754	0.546	SKNSKCNAEST [PSEN1_Y315_Y315C]	0.546	0.48	0.463	0.769	0.486	0.508	0.768	0.379	0.499	0.51	0.368	0.566	0.383
0.936	0.777	0.519	SDPIIYTLENI [ADGRE1_Y534]	0.963	0.568	0.559	0.491	0.724	7.52	1.31	7.17	1.49	0.948	1.43	0.653	5.13
0.909	0.668	0.431	WAMPAYNRSKL [WWOX_Y293_L291P]	0.457	0.289	0.357	0.296	0.324	0.281	0.451	0.328	0.263	0.402	0.257	0.339	0.298
0.785	0.807	0.557	FDGKDYIALNE [HLA-A_Y147_YF]	1.21	0.628	0.704	0.601	0.68	0.496	1.06	0.7	0.6	0.898	0.382	0.654	0.386
1.07	1.11	0.632	ACDALYPPGPP	0.774	0.485	0.432	0.482	0.522	0.469	0.861	0.482	0.391	0.615	0.43	0.566	0.444
1.1	0.645	0.494	NDENIYKGLPD [VAV3_Y141_D139N]	1.34	0.564	0.644	0.529	0.799	0.579	1.2	1.23	1.4	1.14	0.542	1.08	1.78

Sequence	SH2 binding enrichment (Grb2 SH2)	SH2 binding enrichment (SHP2-C SH2)	SH2 binding enrichment (c-Src SH2)	phosphorylation enrichment (AncSZ)	phosphorylation enrichment (EPHB1)	phosphorylation enrichment (EPHB2)	phosphorylation enrichment (FGFR1)	phosphorylation enrichment (FGFR3)	phosphorylation enrichment (Fer (mouse))	phosphorylation enrichment (Fes)	phosphorylation enrichment (Fyn)	phosphorylation enrichment (Hck)	phosphorylation enrichment (Jak2)	phosphorylation enrichment (MERTK)	phosphorylation enrichment (c-Abl (mouse))	phosphorylation enrichment (c-Src)
STEPQYQPGEN [SRC_Y530]	0.814	0.712	0.558	0.825	0.516	0.566	0.478	0.476	0.392	0.817	0.383	0.499	0.681	0.356	0.564	0.38
